Experimental findings from article PMC7079100 are described below.

The target in data set [1] is T1, MSI2-RRM1 (Homo sapiens, UniProt Q96DH6 21-111). Kind of data set: fluorescence polarization; 2 nM RNA; highest affinity of the three; Kd only in figure; FP at room temperature, 2 nM 3' FAM RNA; buffer, salt and pH not given (previously described methods). In general terms: Polarisation of emitted light reports the rotation of a fluorescent probe.
Data set [2] addresses T1, MSI2-RRM1. Kind of data set: fluorescence polarization; 2 nM RNA; lower affinity than Numb15; Kd only in figure; FP at room temperature, 2 nM 3' FAM RNA; buffer, salt and pH not given (previously described methods).

T1 sequence (Q96DH6 21-111): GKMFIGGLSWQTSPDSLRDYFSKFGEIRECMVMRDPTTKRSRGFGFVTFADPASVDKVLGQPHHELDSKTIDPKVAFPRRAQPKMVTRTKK

B1: Numb15 (ssRNA)
RNA: UAGGUAGUAGUUUUA
Take B1: the binding result in data set [1] is “binds”.

B2: Numb8 (ssRNA)
RNA: GUAGUAGU
With B2, the binding result in data set [2] was “binds”.

B3: Numb5 (ssRNA)
RNA: GUAGU
As for B3, the binding result in data set [2] was “binds”.
